Positions count from the first letter of the chain named. Bounds are passed on as bounds.

This is an account of results in patent publication US20050003420, “Recycled mutagenesis of restriction endonuclease toward enhanced catalytic activity” (published 2005).

The target in data set [1] is BsoBI pseudorevertant 6c E46V/D61E/S94T/D246A (UniProt P70985). Kind of data set: cleavage_in_vitro. To be noted: pUC19, 65 C.
The next data set deals with T1, BsoBI D246E D246E (UniProt P70985).
T1 sequence: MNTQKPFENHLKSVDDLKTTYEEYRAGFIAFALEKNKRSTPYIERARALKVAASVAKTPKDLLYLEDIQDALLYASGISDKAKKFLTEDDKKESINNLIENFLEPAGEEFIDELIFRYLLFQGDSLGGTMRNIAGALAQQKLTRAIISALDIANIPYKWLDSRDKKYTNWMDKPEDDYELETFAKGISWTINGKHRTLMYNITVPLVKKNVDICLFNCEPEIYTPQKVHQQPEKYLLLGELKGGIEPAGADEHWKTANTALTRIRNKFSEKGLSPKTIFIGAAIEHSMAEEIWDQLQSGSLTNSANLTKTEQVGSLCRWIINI
Briefly: cleavage_in_vitro. To be noted: lambda or pUC19; purified D246E also lacked measurable cleavage.

The next data set deals with T2, BsoBI D246Q D246Q (UniProt P70985).
T2 sequence: T1 sequence with E246Q
Kind of data set: cleavage_in_vitro. To be noted: cell extract.

In a further data set the target is T3, BsoBI D246N D246N (UniProt P70985).
T3 sequence: T1 sequence with E246N
Kind of data set: cleavage_in_vitro. To be noted: cell extract.

For another data set, the target named is T4, PvuII K93R/V50A (UniProt P23657 P23657:1-157, K93R/V50A).
T4 sequence: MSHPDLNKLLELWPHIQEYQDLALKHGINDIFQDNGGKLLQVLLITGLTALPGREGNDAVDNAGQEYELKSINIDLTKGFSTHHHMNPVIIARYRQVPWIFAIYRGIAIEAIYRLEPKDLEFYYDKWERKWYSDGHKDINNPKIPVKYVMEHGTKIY
Briefly: cleavage_in_vitro; NEB buffer 2, 37 C, 1.5 h. To be noted: tags: His-tag; chain copies: 2 inferred. The text has this: (§1) In order to test the cleavage specificity of the mutant endonucleases, two substrates were designed such that a limited number of sites related to the PvuII cognate sequence were present. A 1042 bp DNA substrate, corresponding to bases 317-1359 of the pUC19 sequence (GenBank #L09137), was amplified from pUC19. This substrate contains a unique PvuII site 631 bp from one end. A second, 1270 bp DNA substrate was amplified from the region corresponding to bases 6010-7280 of pTYB1 (New England Biolabs, Beverly, Mass.). This substrate contains a unique MfeI site 1022 bp from one end, and a unique PmlI site 810 bp from the same end. These substrates were used to determine the substrate specificity of PvuII (K93R) and its variants K93R/R105H, K93R/V50A and E18K/K93R/R105H. PvuII restriction digestion was assayed in NEB buffer 2 at 37° C. for 1.5 hour (New England Biolabs, Inc., Beverly, Mass.). […] The amount of protein required to cleave the MfeI/PmlI substrate at the MfeI site is >10 μg for the K93R mutant, 0.1 μg for K93R/105H, for 0.1 μg K93R/V50A, and 0.03 μg for K93R/R105H/E18K. The amount of protein required to cleave the MfeI/PmlI substrate at the PmlI site is >10 μg for the K93R mutant, 3 μg for K93R/105H, 3 μg for K93R/V50A, and 3 μg for K93R/R105H/E18K. Cleavage of the MfeI or PmlI sites by the wild-type PvuII endonuclease was not detectible (data not shown). It is clear that, compared to K93R, these K93R variants show an increase in specific cleavage activity at CAATTG and […], while maintaining similar levels of cleavage activity at CAGCTG.

The target in the next data set is T5, PvuII E18K/K93R/R105H (UniProt P23657 P23657:1-157, E18K/K93R/R105H).
T5 sequence: T4 sequence with E18K, A50V, R105H
Briefly: cleavage_in_vitro; NEB buffer 2, 37 C, 1.5 h. To be noted: tags: His-tag; chain copies: 2 inferred.
Source text: as §1

A further data set has as its target T6, PvuII K93R (UniProt P23657 P23657:1-157, K93R).
T6 sequence: T4 sequence with A50V
Kind of data set: cleavage_in_vitro; NEB buffer 2, 37 C, 1.5 h. To be noted: tags: His-tag; chain copies: 2 inferred.
Source text: as §1

In another data set the target is T7, PvuII K93R/R105H (UniProt P23657 P23657:1-157, K93R/R105H).
T7 sequence: T4 sequence with A50V, R105H
Briefly: cleavage_in_vitro; NEB buffer 2, 37 C, 1.5 h. To be noted: tags: His-tag; chain copies: 2 inferred.
Source text: as §1

The target in data set [2] is T8, BsoBI restriction endonuclease (UniProt P70985 P70985:1-323).
T8 sequence: T1 sequence with E246D
Briefly: cleavage_in_vitro; pUC19, NEB buffer 2, 65 C. To be noted: tags: untagged, expressed from pRRS-bsoBIR in E. coli ER2683; chain copies: 2 inferred.

For data set [3], the target named is T9, BsoBI pseudorevertant 29e (UniProt P70985 P70985:1-323, D246A/C317W).
T9 sequence: T1 sequence with E246A, C317W
Briefly: cleavage_in_vitro; pUC19, 65 C. To be noted: chain copies: 2 inferred.

For another data set, the target named is T10, BsoBI pseudorevertant 8d (UniProt P70985 P70985:1-323, N36K/D246A).
T10 sequence: T1 sequence with N36K, E246A
Briefly: cleavage_in_vitro; pUC19, 65 C. To be noted: tags: partially purified; chain copies: 2 inferred.

The target of data set [4] is T11, BsoBI pseudorevertant 9c (same as 11c) (UniProt P70985 P70985:1-323, R38S/L62I/D112Y/N169T/L238F/D246A/A248S).
T11 sequence: T1 sequence with R38S, L62I, D112Y, N169T, L238F, E246A, A248S
Briefly: cleavage_in_vitro; pUC19, 65 C; protein temperature sensitive. To be noted: chain copies: 2 inferred.

In the case of “GTACCCGGGGAT (double strand) [pUC19/pZZ1 CCCGGG site]”, in [1], the activity was 4 % of wt.

On to lambda DNA (8 BsoBI sites), for which the activity with BsoBI D246E D246E, in the data set with BsoBI D246Q D246Q and with BsoBI D246N D246N was < 0.001 % of wt throughout.

B1: pUC19 1042 bp PCR fragment, unique PvuII site (dsDNA)
DNA 1: CAGCTG
DNA 2: CAGCTG
As to B1, the activity in the data set with PvuII K93R/V50A is 0.01 ug protein required to cleave; with PvuII E18K/K93R/R105H, 0.03 ug protein required to cleave; with PvuII K93R, 0.03 ug protein required to cleave; in the data set with PvuII K93R/R105H, 0.01 ug protein required to cleave.

B2: pTYB1 1270 bp PCR fragment, MfeI site (dsDNA)
DNA 1: CAATTG
DNA 2: CAATTG
As to B2, the activity with PvuII K93R/V50A was 0.1 ug protein required to cleave; with PvuII E18K/K93R/R105H, 0.03 ug protein required to cleave; in the data set with PvuII K93R/R105H it was 0.1 ug protein required to cleave.

B3: pUC19/pZZ1 CCCGGG site (dsDNA)
DNA 1: GTACCCGGGGAT
DNA 2: ATCCCCGGGTAC
For B3, the activity in data set [2] is 100 % of wt; in data set [3], 4 % of wt; with BsoBI pseudorevertant 8d, 5 % of wt; in data set [4], 10 % of wt.
